In US7981843:

How the values were obtained:
[1] = target: PcrV of Pseudomonas aeruginosa strain PA103 (native, on the bacteria) (Pseudomonas aeruginosa); assay: cell-based or functional assay
[2] = target: GST-PcrV fusion protein (Pseudomonas aeruginosa) [GST: P08515]; assay: dilution ELISA, purified Fab in twofold series in duplicate on plates coated with GST-PcrV, TMB A450 (upper chart)
[3] = target: GST-PcrV fusion protein (Pseudomonas aeruginosa) [GST: P08515]; assay: SPR, Biacore 3000, GST-PcrV amine-coupled to CM4 chip, Fab in solution

| EC50 (read off the curve) [2] [nM] | Kd [3] [nM] | koff [3] [s⁻¹] | kon [3] [M⁻¹ s⁻¹] | Molecule | IC50, inhibition of Pseudomonas-mediated (TTSS exotoxin-dependent) cytotoxicity to P3-X63-Ag8 cells, propidium iodide flow cytometry [1] [nM] |
| --- | --- | --- | --- | --- | --- |
|  |  |  |  | Mab 166 whole IgG (antibody) | 93 |
| 6 | 1.1 | 0.00026 | 249000 | Murine Fab M166 (Fab, from another filing, V domains shown) VH: QVQLKQSGPGLVQPSQSLSITCTVSGFSLTSYGVHWVRQSPGKGLEWLGVIWSGGDTDYNAAFISRLSISKDNSKSQLFFKMNSLRATDTAIYYCARNRGDIYYDFTYAMDYWGQGTSVTVSS VL: DIQMTQSPASLSASVGETVTITCRASGNIQNYLAWYQQTQGKSPQLLVYSAKTLADGVPSRFSGSGSGTQYSLKINSLQPEDFGSYYCQHFWSTPYTFGGGTKLEIKR |  |
